In assay [1] the target is T1, monomeric huBDCA2 ectodomain (human, UniProt Q8WTT0 45-213).
T1 construct: Prepared by proteolytic cleavage of the purified muIgG2a Fc-huBDCA2 fusion protein (pEAG2423); also called human BDCA2 ectodomain; human BDCA2 ECD
T1 sequence: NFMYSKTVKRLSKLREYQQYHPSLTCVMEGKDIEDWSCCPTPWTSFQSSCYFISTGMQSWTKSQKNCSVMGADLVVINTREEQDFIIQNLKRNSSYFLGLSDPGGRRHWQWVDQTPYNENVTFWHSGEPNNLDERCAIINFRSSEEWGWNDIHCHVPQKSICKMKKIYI
The assay is described as follows: Octet, mAb from conditioned medium on anti-human Fc tips, monomeric huBDCA2 in solution. As for the experimental part: The monomeric huBDCA2 ectodomain was prepared by proteolytic cleavage from the purified muIgG2a Fc-huBDCA2 fusion protein (relevant plasmid: pEAG2423). Antibodies from conditioned medium from transiently transfected cells were bound to anti-human Fc tips, and then monomeric huBDCA2 was flowed over the Octet tips, to examine binding and dissociation.
A general note: Biolayer interferometry detects binding as a change in optical thickness at a sensor tip.

Assay [2] has as its target T2, cynomolgus monkey BDCA2 (full-length, cell surface, E73 SNP form) (cynomolgus monkey, UniProt Q8WTT0 1-213 (human entry)).
T2 construct: also called cyno BDCA2; surface cynomolgus monkey BDCA2
T2 chain: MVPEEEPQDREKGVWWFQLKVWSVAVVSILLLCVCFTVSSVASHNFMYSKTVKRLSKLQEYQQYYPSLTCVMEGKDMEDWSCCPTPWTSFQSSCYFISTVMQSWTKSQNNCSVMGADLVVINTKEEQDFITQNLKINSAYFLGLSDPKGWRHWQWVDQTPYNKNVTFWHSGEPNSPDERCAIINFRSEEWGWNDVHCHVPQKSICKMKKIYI
Kind of assay: direct binding FACS, conditioned medium on CHO cells co-expressing cynomolgus BDCA2 and FcεRIγ; column C (midpoint) of the printed 4-P fit, X in ng/ml; A 3.13, B 0.874, D 71.9, R^2 0.998. As for the experimental part:
(§1) Conditioned medium was assayed by direct binding FACS on stably transfected DG44 CHO cells co-expressing full-length BDCA2 and FcεRIγ cDNAs (human or cynomolgus monkey), (relevant expression vectors are human BDCA2/FcεRIγ: pEAG2456, cyno BDCA2/FcεRIγ: pEAG2668).

Assay [3] concerns the target T1, monomeric huBDCA2 ectodomain. The assay is described as follows: Octet, mAb from conditioned medium on anti-human Fc tips, monomeric huBDCA2 in solution. As for the experimental part:
(§2) Backmutation to the unpaired cysteine, i.e., S95C, was constructed by site-directed mutagenesis producing plasmid pYL749. Variants S95T, S95A, and S95V were constructed by site-directed mutagenesis producing plasmids pYL750, pYL751, and pYL752, respectively. The full-length light chain cDNA sequences in the resultant plasmids were confirmed by DNA sequencing. […] Conditioned medium was harvested at 2 days post-transfection. […] Conditioned medium containing the C95 variant mAbs was assayed by Octet for binding to human BDCA2 ectodomain. Antibodies from conditioned medium from transiently transfected cells were bound to anti-human Fc tips, then monomeric huBDCA2 was flowed over the Octet tips, to examine binding and dissociation.
The source holds these as a separate data set.

The target of assay [4] is T3, human BDCA2 (full-length, cell surface) (human, UniProt Q8WTT0 1-213).
T3 construct: also called huBDCA2; surface human BDCA2
T3 sequence: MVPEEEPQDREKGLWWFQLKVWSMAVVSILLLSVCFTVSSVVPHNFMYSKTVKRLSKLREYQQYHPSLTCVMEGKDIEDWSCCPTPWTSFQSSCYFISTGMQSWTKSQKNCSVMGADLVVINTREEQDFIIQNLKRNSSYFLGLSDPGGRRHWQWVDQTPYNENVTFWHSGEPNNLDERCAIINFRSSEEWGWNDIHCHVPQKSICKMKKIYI
Kind of assay: direct binding FACS, conditioned medium on CHO cells co-expressing human BDCA2 and FcεRIγ; column C (midpoint) of the printed 4-P fit, X in ng/ml; A 8.32, B 1, D 102, R^2 0.999. As for the experimental part:
as §1

For assay [5], the target named is T2, cynomolgus monkey BDCA2 (full-length, …). The assay is described as follows: direct binding FACS, conditioned medium on CHO cells co-expressing cynomolgus BDCA2 and FcεRIγ; column C (midpoint) of the printed 4-P fit, X in ng/ml; A 4.01, B 1.09, D 68.9, R^2 0.998. As for the experimental part: as §1
In assay [6] the target is T3, human BDCA2 (full-length, cell surface). Kind of assay: direct binding FACS, conditioned medium on CHO cells co-expressing human BDCA2 and FcεRIγ; column C (midpoint) of the printed 4-P fit, X in ng/ml; A 6.16, B 0.839, D 115, R^2 0.998. As for the experimental part: as §1
The target of assay [7] is T1, monomeric huBDCA2 ectodomain. Kind of assay: Octet, monomeric huBDCA2. As for the experimental part: as §2
In assay [8] the target is T3, human BDCA2 (full-length, cell surface). Kind of assay: direct binding FACS, conditioned medium on CHO cells co-expressing human BDCA2 and FcεRIγ; column C (midpoint) of the printed 4-P fit, X in ng/ml; A 5.67, B 0.857, D 96.6, R^2 0.999. As for the experimental part: as §1
For assay [9], the target named is T2, cynomolgus monkey BDCA2 (full-length, …). Kind of assay: direct binding FACS, conditioned medium on CHO cells co-expressing cynomolgus BDCA2 and FcεRIγ; column C (midpoint) of the printed 4-P fit, X in ng/ml; A 2.43, B 0.789, D 70.7, R^2 0.999. As for the experimental part:
as §1

For assay [10] the target is unchanged. The assay is described as follows: direct binding FACS, conditioned medium on CHO cells co-expressing cynomolgus BDCA2 and FcεRIγ; column C (midpoint) of the printed 4-P fit, X in ng/ml; A 1.62, B 0.79, D 41.8, R^2 1; the fit is extrapolated: the highest point drawn is at about 4000 ng/ml with MFI about 16, no plateau. As for the experimental part:
as §1

Assay [11] concerns the target T3, human BDCA2 (full-length, cell surface). Kind of assay: direct binding FACS, conditioned medium on CHO cells co-expressing human BDCA2 and FcεRIγ; column C (midpoint) of the printed 4-P fit, X in ng/ml; A 3.85, B 0.622, D 97.2, R^2 0.999. As for the experimental part: as §1
Assay [12] has as its target T1, monomeric huBDCA2 ectodomain. Kind of assay: Octet, mAb on anti-human Fc tips, monomeric huBDCA2 in solution. As for the experimental part:
Site-directed mutagenesis was performed using Agilent's QuikChange II mutagenesis kit following the manufacturer's recommended protocol. […] Mutated plasmids were identified by screening for the introduced restriction site changes. The full-length light chain cDNA sequences in the resultant plasmids were confirmed by DNA sequencing. […] Conditioned medium was harvested at 2 days post-transfection. […] Antibodies from conditioned medium from transiently transfected cells were bound to anti-human Fc tips, then monomeric huBDCA2 was flowed over the Octet tips, to examine binding and dissociation.

Assay [13] deals with T3, human BDCA2 (full-length, cell surface). Kind of assay: direct binding FACS on surface BDCA2, conditioned medium.

Residue numbers refer to the chain shown, from its start. Numbers in names are those of the source. Where two headings read alike, the source gives them in different places.

B1: hu24F4 H4/L1 (C95S) (antibody, V domains shown)
VH: DVQLVESGGGLVKPGGSLRLSCAASGFTFSTYTMSWVRQAPGKGLEWVATISPGDSFGYYYPDSVQGRFTISRDNAKNSLYLQMNSLRAEDTAVYYCTRDIYYNYGAWFAYWGQGTLVTVSS
VL: DIQLTQSPSSLSASVGDRVTITCKASQSVDYDGDSYMNWYQQKPGKAPKLLIYAASTLESGVPSRFSGSGSGTDFTLTISSLQPEDFATYYCQQSNEDPRTFGQGTKVEIK
notes: Human IgG1/kappa; also called 24F4-H4/L1 (YL740/YL746); 24F4S
As for B1, the dissociation constant Kd was 0.744 nM in assay [1] and 0.548 nM in [3]. In addition, the figures for the off-rate constant (koff) in assay [1] and in assay [3] were 0.000408 s⁻¹ and 0.000398 s⁻¹, respectively. Besides, the results for the kon in assay [1] and in [3] were 549000 M⁻¹ s⁻¹ and 727000 M⁻¹ s⁻¹, respectively. Further, the values for the EC50 in [2] and in assay [4] were 0.21 µg/mL and 0.2 µg/mL, respectively.

B2: hu24F4 H5/L1 (antibody, V domains shown)
VH: B1 VH with E6Q, S86R, Q114R
VL: B1 VL
notes: Humanized variant, human IgG1/kappa, conditioned medium of 293E cells; also called H5 series of hu24F4
For the molecule B2, the EC50 in assay [5] was determined as 0.228 µg/mL; in assay [6] it was 0.309 µg/mL.

B3: hu24F4 H5/L1 C95T (antibody, human IgG1, V domains shown)
VH: B1 VH with E6Q, S86R, Q114R
VL: B1 VL with S95T
notes: Heavy chain pYL747 with light chain pYL750; human IgG1/kappa; also called H5/L1 C95T variant
Regarding B3, the binding result in [7] is recorded as “binds”.

B4: hu24F4 H6/L1 (antibody, V domains shown)
VH: B1 VH with P53G, D55N, S56N, F57Y, Y60S, Q66K
VL: B1 VL
notes: Humanized variant, human IgG1/kappa, conditioned medium of 293E cells; also called H6 series of hu24F4
Turning to B4, the EC50 is 0.359 µg/mL in [8] and 0.501 µg/mL in assay [9].

B5: hu24F4 H3/L1 (antibody, V domains shown)
VH: B1 VH with D1E, A49S, T98A
VL: B1 VL
notes: Humanized variant, human IgG1/kappa, conditioned medium of 293E cells; also called H3 series of hu24F4
As to B5, in assay [1], the affinity, expressed as Kd, was 13 nM; the koff is 0.00586 s⁻¹; the kon is 452000 M⁻¹ s⁻¹. For the same molecule, the EC50 in [10] is 7.67 µg/mL. In addition, in assay [11], the EC50 was 0.984 µg/mL.

B6: ch24F4 C95T variant (antibody, human IgG1, kappa, V domains shown)
VH: DVKLVESGGGLVKPGGSLKLSCAASGFTFSTYTMSWVRQTPEKRLEWVATISPGDSFGYYYPDSVQGRFTISRDNAKNTLFLQMSSLKSEDTAMYYCTRDIYYNYGAWFAYWGQGTLVTVSA
VL: DIVLTQSPASLAVSLGQRATISCKASQSVDYDGDSYMNWYQQKPGQPPKLLIYAASTLESGVPARFSGSGSGTDFTLNIHPVEEEDAATYYCQQTNEDPRTFGGGTKLEIKR
notes: pYL672 with pEAG2679; conditioned medium of 293E cells
On to B6, for which the binding result in assay [12] and in [13] was “binds” in each case.

One may read the Kd as the equilibrium constant for the complex coming apart. The koff is the first-order rate constant of dissociation. As a reminder, the kon is the rate constant with which the complex forms. Broadly, the EC50 is the concentration that produces a half-maximal response.

The values are drawn from US20180362652A1 (Biogen, published 2018).
